Measured values taken from US20260166131A1, “METHOD FOR PROMOTING PATHOLOGICAL TDP-43 PROTEIN DEGRADATION, AND DRUG” (TALENGEN INTERNATIONAL LIMITED, priority 2022, published 2026).
Like-named read-outs stand apart in the source and are kept apart here.

Settings: Parkinson's model mice, 50 mg/kg tail vein
Description: Eighteen 6-week-age male C57BL/6J mice were injected intraperitoneally with 1-methyl-4-phenyl-1,2,3,6-tetrahydropyridine (MPTP) solution at a dose of 35 mg/kg/mouse for 5 consecutive days to establish a Parkinson's model. Preparation of MPTP solution: 45 mg of MPTP (Sigma, M0896) was dissolved in 9 ml of physiological saline solution to prepare a final concentration of 5 mg/ml. The mice were randomly divided into two groups according to their body weight: 6 mice in vehicle group, 12 mice in plasminogen group; and administration was begun to record as day 1. The mice in the plasminogen group were injected with 50 mg/kg body weight of plasminogen solution by tail vein, and the mice in the vehicle group were injected with 5 mL/kg body weight of vehicle solution (10 mM citric acid-sodium citrate solution, pH 7.4) by tail vein.

B1: plasminogen: human plasminogen purified from human donor plasma, in which human Lys-plasminogen and Glu-plasminogen are >98% (protein)
chain: KVYLSECKTGNGKNYRGTMSKTKNGITCQKWSSTSPHRPRFSPATHPSEGLEENYCRNPDNDPQGPWCYTTDPEKRYDYCDILECEEECMHCSGENYDGKISKTMSGLECQAWDSQSPHAHGYIPSKFPNKNLKKNYCRNPDRELRPWCFTTDPNKRWELCDIPRCTTPPPSSGPTYQCLKGTGENYRGNVAVTVSGHTCQHWSAQTPHTHNRTPENFPCKNLDENYCRNPDGKRAPWCHTTNSQVRWEYCKIPSCDSSPVSTEQLAPTAPPELTPVVQDCYHGDGQSYRGTSSTTTTGKKCQSWSSMTPHRHQKTPENYPNAGLTMNYCRNPDADKGPWCFTTDPSVRWEYCNLKKCSGTEASVVAPPPVVLLPDVETPSEEDCMFGNGKGYRGKRATTVTGTPCQDWAAQEPHRHSIFTPETNPRAGLEKNYCRNPDGDVGGPWCYTTNPRKLYDYCDVPQCAAPSFDCGKPQVEPKKCPGRVVGGCVAHPHSWPWQVSLRTRFGMHFCGGTLISPEWVLTAAHCLEKSPRPSSYKVILGAHQEVNLEPHVQEIEVSRLFLEPTRKDIALLKLSSPAVITDKVIPACLPSPNYVVADRTECFITGWGETQGTFGAGLLKEAQLPVIENKVCNRYEFLNGRVQSTELCAGHLAGGTDSCQGDSGGPLVCFEKDKYILQGVTSWGLGCARPNKPGVYVRVSRFVTWIEGVMRNN
With B1 the “ratio of brain tissue plasminogen level to blood plasminogen level” value (from here on “ratio of brain tissue plasminogen level”) (2 hours) was 3.47%, the “ratio of spinal cord tissue plasminogen level to blood plasminogen level” value (2 hours) was 1.24% and the “ratio of brain tissue plasminogen level” value (6 hours) was 4.18%. For the same molecule, the “ratio of spinal cord tissue plasminogen level to blood plasminogen level” value (6 hours) was 1.16%, the “ratio of brain tissue plasminogen level” value (12 hours) was 8.51% and the “ratio of spinal cord tissue plasminogen level to blood plasminogen level” value (12 hours) was 1.46%.
